Laboratory results as given in patent US20260337278 (published 2026).

Experiments:
[1] = biological target: EGFR (wild-type, His-tagged or biotinylated) (human, UniProt P00533); assay: BLI
EGFRvIII = EGFRvIII (human, UniProt P00533); assay: BLI

Kd [1] [nM] | Kd (EGFRvIII) [nM] | Binder
13.4 | 1.21 | SI-95X25 (antibody) chain 1: not shown chain 2: DVQLQESGPSLVKPSQSLSLTCTVTGYSITSDFAWNWIRQFPGNKLEWMGYISYSGNTRYNPSLKSRISITRDTSKNQFFLQLNSVTIEDTATYYCVTAGRGFPYWGQGTLVTVSAGGGGSGGGGSGGGGSDILMTQSPSSMSVSLGDTVSITCHSSQDINSNIGWLQQRPGKSFKGLIYHGTNLDDEVPSRFSGSGSGADYSLTISSLESEDFADYYCVQYAQFPWTFGGGTKLEIKGGGGSGGGGSGSGSGGGGGSGGGGSGGGGSDIQMTQSPSSLSASVGDRVTITCRSSQNIVHSNGNTYLDWYQQTPGKAPKLLIYKVSNRFSGVPSRFSGSGSGTDFTFTISSLQPEDIATYYCFQYSHVPWTFGQGTKLQITRTVAAPSVFIFPPSDEQLKSGTASVVCLLNNFYPREAKVQWKVDNALQSGNSQESVTEQDSKDSTYSLSSTLTLSKADYEKHKVYACEVTHQGLSSPVTKSFNRGEC
4.73 | 0.839 | SI-95X20 (antibody) chain 1: not shown chain 2: DIQMTQSPSSLSASVGDRVTITCRSSQNIVHSNGNTYLDWYQQTPGKAPKLLIYKVSNRFSGVPSRFSGSGSGTDFTFTISSLQPEDIATYYCFQYSHVPWTFGQGTKLQITRTVAAPSVFIFPPSDEQLKSGTASVVCLLNNFYPREAKVQWKVDNALQSGNSQESVTEQDSKDSTYSLSSTLTLSKADYEKHKVYACEVTHQGLSSPVTKSFNRGEC
5.56 | 0.654 | SI-95X21 (antibody) chain 1: not shown chain 2: DIQMTQSPSSLSASVGDRVTITCRSSQNIVHSNGNTYLDWYQQTPGKAPKLLIYKVSNRFSGVPSRFSGSGSGTDFTFTISSLQPEDIATYYCFQYSHVPWTFGQGTKLQITRTVAAPSVFIFPPSDEQLKSGTASVVCLLNNFYPREAKVQWKVDNALQSGNSQESVTEQDSKDSTYSLSSTLTLSKADYEKHKVYACEVTHQGLSSPVTKSFNRGEC
7.56 | 0.579 | SI-95X28 (antibody) chain 1: not shown chain 2: DILMTQSPSSMSVSLGDTVSITCHSSQDINSNIGWLQQRPGKSFKGLIYHGTNLDDEVPSRFSGSGSGADYSLTISSLESEDFADYYCVQYAQFPWTFGGGTKLEIKGGGGSGGGGSGGGGSDVQLQESGPSLVKPSQSLSLTCTVTGYSITSDFAWNWIRQFPGNKLEWMGYISYSGNTRYNPSLKSRISITRDTSKNQFFLQLNSVTIEDTATYYCVTAGRGFPYWGQGTLVTVSAGGGGSGGGGSGSGSGGGGGSGGGGSGGGGSDIQMTQSPSSLSASVGDRVTITCRSSQNIVHSNGNTYLDWYQQTPGKAPKLLIYKVSNRFSGVPSRFSGSGSGTDFTFTISSLQPEDIATYYCFQYSHVPWTFGQGTKLQITRTVAAPSVFIFPPSDEQLKSGTASVVCLLNNFYPREAKVQWKVDNALQSGNSQESVTEQDSKDSTYSLSSTLTLSKADYEKHKVYACEVTHQGLSSPVTKSFNRGEC
6.17 | 1.45 | SI-95X23 (antibody) chain 1: not shown chain 2: DVQLQESGPSLVKPSQSLSLTCTVTGYSITSDFAWNWIRQFPGNKLEWMGYISYSGNTRYNPSLKSRISITRDTSKNQFFLQLNSVTIEDTATYYCVTAGRGFPYWGQGTLVTVSAGGGGSGGGGSGGGGSDILMTQSPSSMSVSLGDTVSITCHSSQDINSNIGWLQQRPGKSFKGLIYHGTNLDDEVPSRFSGSGSGADYSLTISSLESEDFADYYCVQYAQFPWTFGGGTKLEIKSGSGSGGGGGSGGGGSGGGGSDIQMTQSPSSLSASVGDRVTITCRSSQNIVHSNGNTYLDWYQQTPGKAPKLLIYKVSNRFSGVPSRFSGSGSGTDFTFTISSLQPEDIATYYCFQYSHVPWTFGQGTKLQITRTVAAPSVFIFPPSDEQLKSGTASVVCLLNNFYPREAKVQWKVDNALQSGNSQESVTEQDSKDSTYSLSSTLTLSKADYEKHKVYACEVTHQGLSSPVTKSFNRGEC
